US20190300590A1 (PROTAGONIST THERAPEUTICS, published 2019)
*1 amine or outer side, *2 acyl side, *3 side chain or, on linkers, in order; H or OH if unused. Bridges are numbered along the chain shown (N, C = ends). Primed or numbered codes have the meaning given here. [ ]: non-standard residue; d: D form. Phe(4-(2-acetylaminoethoxy))″ = 4-(2-acetylaminoethoxy)phenylalanine, CC(=O)NCCOc1ccc(C[C@H](N[*:1])C(=O)[*:2])cc1; 2Nal = N[C@@H](Cc1ccc2ccccc2c1)C(=O)O; AEF = NCCOc1ccc(C[C@H](N)C(=O)O)cc1; Pen = CC(C)(S)[C@H](N)C(=O)O; αMeK = C[C@](N)(CCCCN)C(=O)O; Dap = NC[C@H](N)C(=O)O; Aib = CC(C)(N)C(=O)O

T1: IL-23R on DB cells (human, UniProt Q5VWK5 24-629)
T1 sequence (looked up): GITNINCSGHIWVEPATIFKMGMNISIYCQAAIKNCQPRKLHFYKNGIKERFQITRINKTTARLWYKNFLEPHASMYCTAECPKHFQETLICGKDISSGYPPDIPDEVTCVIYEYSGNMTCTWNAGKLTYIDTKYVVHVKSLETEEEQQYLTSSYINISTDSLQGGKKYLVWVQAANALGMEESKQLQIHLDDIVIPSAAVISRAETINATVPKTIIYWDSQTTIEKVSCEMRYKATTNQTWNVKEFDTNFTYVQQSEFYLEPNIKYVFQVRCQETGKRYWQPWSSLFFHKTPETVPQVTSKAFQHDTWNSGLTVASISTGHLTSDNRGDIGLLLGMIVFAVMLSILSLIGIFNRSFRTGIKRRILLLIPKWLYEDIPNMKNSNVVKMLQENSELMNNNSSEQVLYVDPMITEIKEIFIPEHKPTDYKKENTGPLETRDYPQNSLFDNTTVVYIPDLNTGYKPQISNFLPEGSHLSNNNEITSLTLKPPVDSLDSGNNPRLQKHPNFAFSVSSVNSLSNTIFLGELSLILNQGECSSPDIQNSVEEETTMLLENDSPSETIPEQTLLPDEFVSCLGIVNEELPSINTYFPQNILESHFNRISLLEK

B1: Ac-[Pen]-QTWQ-[Pen]-[2-Nal]-[2-Nal]-[α-MeLys]-ENG-NH2 (peptide)
peptide: Ac-[Pen]QTWQ[Pen][2Nal][2Nal][αMeK]ENG-NH2
modifications: disulfide 1-6
SMILES: CC(=O)N[C@@H]1C(=O)N[C@@H](CCC(N)=O)C(=O)N[C@@H]([C@@H](C)O)C(=O)N[C@@H](Cc2c[nH]c3ccccc23)C(=O)N[C@@H](CCC(N)=O)C(=O)N[C@H](C(=O)N[C@@H](Cc2ccc3ccccc3c2)C(=O)N[C@@H](Cc2ccc3ccccc3c2)C(=O)N[C@@](C)(CCCCN)C(=O)N[C@@H](CCC(=O)O)C(=O)N[C@@H](CC(N)=O)C(=O)NCC(N)=O)C(C)(C)SSC1(C)C

Molecular target: T1, IL-23R on DB cells
Experiment: cell-based or functional assay

pStat3 HTRF IC50 [nM] | Binder
10 to 25 | B1
10 to 25 | XQTWQXYXXENG (Ac; Pen-Pen disulfide; 2-Nal; α-MeOrn; NH2) [Ac-[Pen]-QTWQ-[Pen]-Y-[2-Nal]-[α-MeOrn]-ENG-NH2]
< 10 | Ac-[Pen][Dap]TWQ[Pen][AEF][2Nal][αMeK]ENG-NH2 (disulfide 1-6 (inferred)) [Ac-[Pen]-[Dap]-TWQ-[Pen]-[Phe[4-(2-aminoethoxy)]-[2-Nal]-[α-MeLys]-ENG-NH2]
< 10 | XQTWQXFXXENN (Ac; Pen-Pen disulfide; Phe[4-(2-aminoethoxy)]; 2-Nal; Aib; NH2) [Ac-[Pen]-QTWQ-[Pen]-[Phe[4-(2-aminoethoxy)]-[2-Nal]-[Aib]-ENN-NH2]
< 10 | XQTWQXFXXKNN (Ac; Pen-Pen disulfide; Phe[4-(2-aminoethoxy)]; 2-Nal; Aib; Lys(Ac); NH2) [Ac-[Pen]-QTWQ-[Pen]-[Phe[4-(2-aminoethoxy)]-[2-Nal]-Aib-[Lys(Ac)]-NN-NH2]
< 10 | Ac-[Pen][Dap](Ac)TWQ[Pen][Phe(4-(2-acetylaminoethoxy))″][2Nal][αMeK](Ac)ENG-NH2 (disulfide 1-6 (inferred)) [Ac-[Pen]-Dap(Ac)TWQ-[Pen]-[Phe[4-(2-acetylaminoethoxy)]-[2-Nal]-[α-MeLys(Ac)]-ENG-NH2]
< 10 | XQTWQXFXXENN (Ac; Pen-Pen disulfide; Phe[4-(2-acetylaminoethoxy)]; 2-Nal; Aib; NH2) [Ac-[Pen]-QTWQ-[Pen]-[Phe[4-(2-acetylaminoethoxy)]-[2-Nal]-[Aib]-ENN-NH2]
< 10 | XQTWQXFXXKNN (Ac; Pen-Pen disulfide; Phe[4-(2-acetylaminoethoxy)]; 2-Nal; Aib; Lys(Ac); NH2) [Ac-[Pen]-QTWQ-[Pen]-[Phe[4-(2-acetylaminoethoxy)]-[2-Nal]-[Aib]-[Lys(Ac)]-NN-NH2]
< 10 | XQTWQXFXXENN (Ac; Pen-Pen disulfide; Phe(4-OMe); 2-Nal; Aib; NH2) [Ac-[Pen]-QTWQ-[Pen]-[Phe(4-OMe)]-[2-Nal]-[Aib]-ENN-NH2]
10 to 25 | XQTWQXFXLENA (Ac; Pen-Pen disulfide; Phe[4-(2-aminoethoxy)]; 2-Nal; hLeu; NH2) [Ac-[Pen]-QTWQ-[Pen]-[Phe[4-(2-aminoethoxy)]-[2-Nal]-[hLeu]-ENA-NH2]
< 10 | Ac-[Pen]TTWQ[Pen][AEF][2Nal][Aib]K(Ac)NN-NH2 (disulfide 1-6 (inferred)) [Ac-[Pen]-TTWQ-[Pen]-[Phe[4-(2-aminoethoxy)]-[2-Nal]-[Aib]-[Lys(Ac)]-NN-NH2]
< 10 | Ac-[Pen]TTWQ[Pen][AEF][2Nal][Aib]K(Ac)NQ-NH2 (disulfide 1-6 (inferred)) [Ac-[Pen]-TTWQ-[Pen]-[Phe[4-(2-aminoethoxy)]-[2-Nal]-[Aib]-[Lys(Ac)]-NQ-NH2]
< 10 | XQTWQXFXXKNN (Ac; Pen-Pen disulfide; Phe(4-OMe); 2-Nal; Aib; Lys(Ac); NH2) [Ac-[Pen]-QTWQ-[Pen]-[Phe(4-OMe)]-[2-Nal]-[Aib]-[Lys(Ac)]-NN-NH2]
< 10 | XNTWQXFXXENN (Ac; Pen-Pen disulfide; Phe(4-OMe); 2-Nal; Aib; NH2) [Ac-[Pen]-NTWQ-[Pen]-[Phe(4-OMe)]-[2-Nal]-[Aib]-ENN-NH2]
< 10 | XNTWQXFXLENA (Ac; Pen-Pen disulfide; Phe[4-(2-aminoethoxy)]; 2-Nal; hLeu; NH2) [Ac-[Pen]-NTWQ-[Pen]-[Phe[4-(2-aminoethoxy)]-[2-Nal]-[hLeu]-ENA-NH2]
< 10 | XNTWQXFXXKNN (Ac; Pen-Pen disulfide; Phe[4-(2-aminoethoxy)]; 2-Nal; Aib; Lys(Ac); NH2) [Ac-[Pen]-NTWQ-[Pen]-[Phe[4-(2-aminoethoxy)]-[2-Nal]-[Aib]-[Lys(Ac)]-NN-NH2]
< 10 | XNTWQXFXXKNA (Ac; Pen-Pen disulfide; Phe(4-OMe); 2-Nal; Aib; Lys(Ac); βAla; NH2) [Ac-[Pen]-NTWQ-[Pen]-[Phe(4-OMe)]-[2-Nal]-[Aib]-[Lys(Ac)]-N-[βAla]-NH2]
< 10 | XNTWQXFXXKNQ (Ac; Pen-Pen disulfide; Phe[4-(2-aminoethoxy)]; 2-Nal; Aib; Lys(Ac); NH2) [Ac-[Pen]-NTWQ-[Pen]-[Phe[4-(2-aminoethoxy)]-[2-Nal]-[Aib]-[Lys(Ac)]-NQ-NH2]
< 10 | XNTWQXFXXKNA (Ac; Pen-Pen disulfide; Phe(4-OMe); 2-Nal; Aib; Lys(Ac); NH2) [Ac-[Pen]-NTWQ-[Pen]-[Phe(4-OMe)]-[2-Nal]-[Aib]-[Lys(Ac)]-NA-NH2]
< 10 | XNTWQXFXXKNA (Ac; Pen-Pen disulfide; Phe[4-(2-aminoethoxy)]; 2-Nal; Aib; Lys(Ac); NH2) [Ac-[Pen]-NTWQ-[Pen]-[Phe[4-(2-aminoethoxy)]-[2-Nal]-[Aib]-[Lys(Ac)]-NA-NH2]
